Test results from article PMC7326950, “Hypoxanthine-Guanine Phosphoribosyltransferase/adenylate Kinase From Zobellia galactanivorans: A Bifunctional Catalyst for the Synthesis of Nucleoside-5′-Mono-, Di- and Triphosphates” (Frontiers in Bioengineering and Biotechnology, 2020).

How the values were obtained:
ZgHGPRT/AMPK = molecular target: T1, ZgHGPRT/AMPK (Zobellia galactanivorans, UniProt G0LC40); assay: steady-state kinetics, HPLC of IMP formation, non-linear regression; assay type: biochemical; conditions: HGPRT domain; apparent substrate inhibition at high Hyp; PRPP fixed at 5 mM; varied Hyp 0.5–17.2 mM; Mg2+
T1 construct: gene adkA; homodimer
Description: (§1) steady-state kinetics, HPLC of IMP formation, non-linear regression on ZgHGPRT/AMPK

[1] = substrate: O=c1[nH]cnc2nc[nH]c12; assay: as above; assay type: biochemical, Zobellia galactanivorans; conditions: HGPRT domain; apparent; PRPP fixed at 5 mM; varied Hyp 0.5–17.2 mM; Mg2+
Description: as §1

[2] = substrate: O=P(O)(O)OC[C@H]1O[C@H](OP(=O)(O)OP(=O)(O)O)[C@H](O)[C@@H]1O; assay: as above; assay type: biochemical, Zobellia galactanivorans; conditions: HGPRT domain; apparent; Hyp fixed at 5 mM; varied PRPP 0.5–17.2 mM; Mg2+
Description: as §1

[3] = molecular target: the molecule itself; assay: AUC; sedimentation velocity, 20 mM Tris-HCl pH 8, 20°C, 50,000 x g, profiles at 292 nm, c(s) by SEDFIT; protein 0.4 mg/ml
[4] = substrate: Nc1ncnc2c1ncn2[C@@H]1O[C@H](COP(=O)(O)OP(=O)(O)OP(=O)(O)O)[C@@H](O)[C@H]1O; assay: steady-state kinetics, HPLC of ADP formation, non-linear regression; assay type: biochemical, Zobellia galactanivorans; conditions: AMPK domain; apparent; AMP fixed at 3.2 mM; varied ATP 0.5–10 mM; Mg2+
Description: steady-state kinetics, HPLC of ADP formation, non-linear regression on ZgHGPRT/AMPK

purified protein = substrate: Nc1ncnc2c1ncn2[C@@H]1O[C@H](COP(=O)(O)O)[C@@H](O)[C@H]1O; assay: purified protein; conditions: AMPK domain; apparent; ATP fixed at 3.2 mM; varied AMP 0.5–10 mM; Mg2+

| Molecule | Value with variable substrate / Hyp^a (ZgHGPRT/AMPK) [mM] | Km [1] [mM] | kcat [1] [s⁻¹] | kcat/Km [1] [M⁻¹ s⁻¹] | Km [2] [mM] | kcat [2] [s⁻¹] | kcat/Km [2] [M⁻¹ s⁻¹] | stoichiometry N [3] | Km [4] [mM] | kcat [4] [s⁻¹] | kcat/Km [4] [M⁻¹ s⁻¹] | Km (purified protein) [mM] | kcat (purified protein) [s⁻¹] | kcat/Km (purified protein) [M⁻¹ s⁻¹] |
| --- | --- | --- | --- | --- | --- | --- | --- | --- | --- | --- | --- | --- | --- | --- |
| O=c1[nH]cnc2nc[nH]c12 [compound 1, hypoxanthine] | 11.12 ± 1.02 | – | – | – | – | – | – | – | – | – | – | – | – | – |
| hypoxanthine-guanine phosphoribosyltransferase (HGPRT)/adenylate kinase (AMPK) from Zobellia galactanivorans (enzyme, UniProt G0LC40 1-368, looked up, gene from GenScript cloned NheI-BamHI into pET28b(+); The vector encodes a thrombin cleavage site between the His6 tag and the enzyme; no cleavage is described, and the measured mass is compared with that of the His6-tagged protein (43.77 kDa); also called ZgHGPRT/AMPK; HGPRT/AMPK; source: E. coli BL21(DE3), purified (HisTrap FF, Superdex 200); not shown: His6, N-terminal, kept) MIKLHDKHFKPFLSEAQIKAAVKKVAEQVAADYKDETPIFVGVLNGAFMFISDFLKEYQYPCEVSFVKLSSYQGLTSTGIVETLLDVSENIEGRSVIILEDIIDTGRTLKKLVHLFSKANVKEFRVASLFYKSEVYNGEYTIDYVGIDIPDKFIVGYGLDYNELGRNLREVYQLNQKHMINLVLFGKPGAGKGTQAEFLKDKYNLKHISTGDLFRFNMKNDTELGKLAKSYIDRGDLVPDEVTIKMLQDAVEKNPEASGFIFDGFPRTVAQAEALDKFLATKDMKIDATIALEANDEVLIQRLLERGKVSGRSDDQDESKIRNRFDEYNEKTAPLKDFYENQGKFHSVNGIGAIDEITHRLGKVIEEL | – | 1.01 ± 0.05 | 1.11 ± 0.06 | 1100 | 6.77 ± 0.41 | 2.82 ± 0.21 | 420 | 2 | 0.77 ± 0.04 | 0.07 ± 0.003 | 100 | 8.02 ± 0.40 | 0.16 | 20 |
